Experimental data: patent publication US20210214734A1, “METHODS FOR SELECTIVELY INHIBITING MOLECULAR CHAPERONE CLIENTS AND COMPOSITIONS FOR USE THEREOF” (Research Foundation for the State University of New York, priority 2020, published 2021)
“Also recorded” adds a separate entry of the source. Where no end group is shown, it is not given here. [ ]: non-standard residue; d: D form. Phe(4-F) = N[C@@H](Cc1ccc(F)cc1)C(=O)O

B1: A01 (peptide)
peptide: LGGGQ[Phe(4-F)]GEVYGGVAVKTLGGGEFLDEAAVMK
notes: also called peptide A01; Abl01
B2: A02 (peptide)
peptide: [Phe(4-F)]GGSPYPGIDLSQVYELLEK
notes: also called peptide A02; Abl02
B3: B-Raf-01 (peptide)
peptide: GYSTKPQLAGGGNVTAPTPQG[Phe(4-F)]QHSGS
notes: also called Braf01-pep
B4: B-Raf-02 (peptide)
peptide: FGTVYKGKWGGGG[Phe(4-F)]STKPQLAGGGNVTAPTPQ
notes: also called Braf02-pep

What was measured:
GR:Hsp90 = assay: GR dissociation from Hsp90 in 786-O cells; type: cell-based
Procedure: Human embryonic kidney (HEK293) and 786-O cells were acquired from the American Type Culture Collection (ATCC). HEK293 cells were grown in Dulbecco's Modified Eagle Medium (DMEM, Millipore-Sigma) and 786-O cells were grown in Roswell Park Memorial Institute (RPMI-1640, Millipore-Sigma) medium supplemented with 10% fetal bovine serum (FBS, Millipore-Sigma) in a CellQ incubator (Panasonic Healthcare) at 37° C. in 5% CO2.
Cultured cells were seeded 24 h prior to treatment. Peptides were added to cells at 50% confluency at the indicated concentrations and incubated for 24 h, followed by protein extraction as described below.
Protein extraction from mammalian cells was carried out using methods previously described. See Woodford et al., Cell Reports, 14, 872-884 (2016). For immunoprecipitation, protein lysates were incubated with Hsp90 antibody for 2 h followed by incubation with protein G agarose (Qiagen) for 2 h at 4° C. Immunopellets were washed 4 times with fresh lysis buffer (20 mM Tris (pH7.4), 100 mM NaCl, 1 mM MgCl2, 0.1% NP40, protease inhibitor cocktail (Roche), and PhosSTOP (Roche)) and eluted with 5× Laemmli buffer. Precipitated proteins were separated by SDS-PAGE and transferred to nitrocellulose membranes. Co-immunoprecipitated proteins were detected by immunoblotting with the indicated antibodies, diluted in 5% non-fat dry milk reconstituted in TBST.

full length human Hsp90 = assay: 19F NMR R2 filter binding to Hsp90; parameters: 19F NMR signal change in presence of Hsp90 (binding): dose or concentration left out as unconfirmed; details: 19F R2 filter; peptides tested individually; A01
Procedure: (§1) All the NMR experiments have been recorded at 298° K with a Bruker FT NMR Avance III 600-MHz spectrometer equipped with a 5-mm CryoProbe™ QCI^1H/^19F-^13C/^15N-D quadruple resonance, a shielded z-gradient coil, and the automatic sample handling system such as a SAMPLEJET™ brand sampling system with temperature control.
(§2) ^19F NMR experiments are a well-recognized approach to study the interaction between small molecules or peptides and proteins. […] This is due to the large dynamic range defined as the difference of the NMR measured response in the free and protein-bound states. ^19F R2 filter NMR experiments are among the most sensitive techniques for weak binding detection. See Dalvit et al., Journal of American Chemical Society, 125, 7696-7703 (2003). The transverse relaxation rate R2 is a very sensitive parameter for these studies, due to the large Chemical Shift Anisotropy (CSA) of ^19F nucleus and to the large exchange contribution See Dalvit et al., Journal of American Chemical Society, 125, 7696-7703 (2003); the compounds/peptides that interact with the receptor will show a broadening and intensity reduction in their ^19F NMR signal in presence of the protein
(§3) The 5 mM stock solution peptides were prepared in 100% in DMSOd6. Solubility and purity of the peptides in PBS buffer pH 7.4, 10% D2O (for the lock signal) were checked by ^19F and ^1H NMR spectroscopy. 1D ^19F NMR experiments were recorded with proton decoupling with the Waltz-16 scheme during the acquisition period with an acquisition time of 0.95 s, a relaxation delay of 30 s. whereas 1D version of the NOESY (nuclear Overhauser effect spectroscopy) pulse sequence with H2O signal presaturation, a mixing time of 10 ms and a relaxation delay of 30 s was used for ^1H NMR experiments.
(§4) For the binding studies R2 filter experiments were recorded with the Carr-Purcell-Meibom-Gill scheme with a time interval of 23.5 ms between the 180° pulses with a loop of 2, an acquisition time of 0.95 s a D1 of 5 s and a number of scans of 512. All the ^19F chemical shifts are referenced to the CFCl3 signal in water.

Cdc37 = biological target: T1, Cdc37 (Homo sapiens, UniProt Q16543); assay: 19F NMR R2 filter binding to Cdc37; parameters: dose or concentration left out as unconfirmed
T1 sequence (Q16543 1-378): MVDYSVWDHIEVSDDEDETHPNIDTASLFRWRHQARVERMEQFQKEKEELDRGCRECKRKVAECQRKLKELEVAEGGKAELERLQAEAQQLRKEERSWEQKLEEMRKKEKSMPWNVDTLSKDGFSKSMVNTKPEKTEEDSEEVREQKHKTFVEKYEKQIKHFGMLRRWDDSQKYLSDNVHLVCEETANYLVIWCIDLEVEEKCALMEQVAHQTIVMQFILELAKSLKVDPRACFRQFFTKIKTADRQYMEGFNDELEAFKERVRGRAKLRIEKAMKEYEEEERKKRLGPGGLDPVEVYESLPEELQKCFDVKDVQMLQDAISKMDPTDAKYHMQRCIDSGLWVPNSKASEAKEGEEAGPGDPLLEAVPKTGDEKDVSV
Procedure: as §1, §2, §3, §4

Aha1 [1] = biological target: Aha1 (Homo sapiens, UniProt O95433); assay: 19F NMR R2 filter binding to Aha1; details: cAbl peptides at 10 mM
Aha1 (Homo sapiens, UniProt O95433), sequence (O95433 whole entry, species assumed): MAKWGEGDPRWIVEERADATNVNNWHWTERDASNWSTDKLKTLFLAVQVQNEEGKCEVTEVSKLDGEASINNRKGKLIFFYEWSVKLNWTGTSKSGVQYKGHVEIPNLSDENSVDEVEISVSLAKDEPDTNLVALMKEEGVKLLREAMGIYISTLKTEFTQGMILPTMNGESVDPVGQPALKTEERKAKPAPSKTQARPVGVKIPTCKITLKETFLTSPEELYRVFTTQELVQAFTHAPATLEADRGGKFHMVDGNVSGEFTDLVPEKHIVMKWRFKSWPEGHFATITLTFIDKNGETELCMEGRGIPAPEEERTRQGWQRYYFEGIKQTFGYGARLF
Procedure: as §1
(§5) ^19F NMR experiments are a well-recognized approach to study the interaction between small molecules or peptides and proteins. […] This is due to the large dynamic range defined as the difference of the NMR measured response in the free and protein-bound states. ^19F R2 filter NMR experiments are among the most sensitive techniques for weak binding detection. […]
as §3, with “Solubility and purity of the peptides in PBS buffer pH 7.4, 10% D2O (for the lock signal) were checked by ^19F and ^1H NMR spectroscopy.” left out
(§6) For the binding studies R2 filter experiments were recorded with the Carr-Purcell-Meibom-Gill scheme with a time interval of 23.5 ms between the 180° pulses with a loop of 2, an acquisition time of 0.95 s a D1 of 5 s and a number of scans of 512. […]

[2] = tested on: Hsp90 chaperone complexes (Hsp90, Cdc37, Aha1); assay: 19F NMR binding to proteins of the Hsp90 chaperone system, single and mixed peptides
Procedure: as §1, §5
as §3, with “Solubility and purity of the peptides in PBS buffer pH 7.4, 10% D2O (for the lock signal) were checked by ^19F and ^1H NMR spectroscopy.” left out
as §6

Human Serum Albumin = biological target: T2, Human Serum Albumin (human, UniProt P02768 25-609); assay: 19F NMR
T2 construct: also called HSA

Aha1 [3] = biological target: T3, Aha1 (UniProt O95433 1-338, limits assumed); assay: 19F NMR R2 filter
T3 construct: Protein used in the 19F NMR experiments
T3 sequence (O95433 whole entry): as the sequence (O95433 whole entry, species assumed) above

Molecule	GR dissociation from Hsp90 (GR:Hsp90)	binding result (Human Serum Albumin)	also measured
TLPCGGTWRIMTGIE F(F)PEMLA (TLPCGGTWRIMTGIE[Phe(4-F)]PEMLA) [GR-01, glucocorticoid receptor mimic peptide]	showed GR dissociation from Hsp90		
YAGYDSSVPDSTWRIMTTLNMGGF(F)PEMLA (YAGYDSSVPDSTWRIMTTLNMGG[Phe(4-F)]PEMLA) [GR-02, glucocorticoid receptor mimic peptide]	showed GR dissociation from Hsp90		19F NMR signal change in presence of Hsp90 (binding) (full length human Hsp90): bound to all of the tested proteins; binding to Cdc37 by 19F NMR (Cdc37): highest effect on Cdc37; also recorded: binding effect is higher on CDC37; binding to Aha1 by 19F NMR (Aha1 [1]): bound to all of the tested proteins; binding to members of the Hsp90 chaperone complex by 19F NMR ([2]; Hsp90, Cdc37, Aha1): binds to all the protein; competition among peptides when mixed (19F NMR signal variation vs single peptide) ([2]; peptides mixed together and added to protein solution): No significant difference
B1		no binding (tested: 40 mM A01 with 10 mM HSA)	binding result (Aha1 [3]): no binding (tested: 10 mM of each cAbl peptide)
B2		no binding (tested: 40 mM A02 with 10 mM HSA)	
B3		no binding	
B4		no binding	
